This is an account of results in patent publication US20160185871A1 (UNIVERSITY OF TOKYO, published 2016).

Assay [1] has as its target T1, C terminal region TLR7 (TLR7C; from 461-st glutamic acid to 837-th aspartic acid) (mouse, UniProt P58681 461-837).
T1 construct: not shown: N-terminal HA antigen added by the pDisplay vector; Cell-surface display (membrane anchor) part of the pDisplay vector; not described
T1 sequence: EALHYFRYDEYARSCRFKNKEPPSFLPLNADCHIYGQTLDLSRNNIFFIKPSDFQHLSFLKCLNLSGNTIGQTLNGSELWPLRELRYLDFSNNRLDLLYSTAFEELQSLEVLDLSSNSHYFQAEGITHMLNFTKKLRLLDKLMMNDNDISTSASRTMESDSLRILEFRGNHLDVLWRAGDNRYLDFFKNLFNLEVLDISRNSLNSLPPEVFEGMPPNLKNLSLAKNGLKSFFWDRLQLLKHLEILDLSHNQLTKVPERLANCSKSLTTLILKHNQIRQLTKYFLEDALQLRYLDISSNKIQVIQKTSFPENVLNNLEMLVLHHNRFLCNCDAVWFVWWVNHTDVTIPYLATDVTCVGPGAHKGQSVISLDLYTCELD
Nature of the assay: flow cytometry on cells displaying the fragment. Background: Flow cytometry measures light scatter and fluorescence of single cells or particles in a stream.

In a further assay the target is T2, TLR7N27-312 (mouse, UniProt P58681 27-312).
T2 construct: Expressed in a cell line; also called fragment of TLR7 from position 27 to position 312
T2 sequence: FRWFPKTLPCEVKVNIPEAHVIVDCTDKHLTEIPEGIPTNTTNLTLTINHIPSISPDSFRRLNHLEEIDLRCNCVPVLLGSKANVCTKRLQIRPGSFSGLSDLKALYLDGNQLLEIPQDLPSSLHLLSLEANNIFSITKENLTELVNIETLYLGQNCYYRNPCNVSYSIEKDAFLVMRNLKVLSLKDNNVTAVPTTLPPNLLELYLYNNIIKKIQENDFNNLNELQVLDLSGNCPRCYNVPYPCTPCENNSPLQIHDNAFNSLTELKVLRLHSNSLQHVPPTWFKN
Nature of the assay: flow cytometry on a cell line expressing the fragment.

The next assay deals with T3, mouse TLR9 (mouse, UniProt Q9EQU3 26-1032).
T3 construct: Stands for three settings: mouse TLR9 expressed in Ba/F3 cells (Ba/F3_mTLR9), alone or with Unc93B1, and endogenous TLR9 of spleen DC; also called mTLR9; endogenous TLR9
T3 sequence: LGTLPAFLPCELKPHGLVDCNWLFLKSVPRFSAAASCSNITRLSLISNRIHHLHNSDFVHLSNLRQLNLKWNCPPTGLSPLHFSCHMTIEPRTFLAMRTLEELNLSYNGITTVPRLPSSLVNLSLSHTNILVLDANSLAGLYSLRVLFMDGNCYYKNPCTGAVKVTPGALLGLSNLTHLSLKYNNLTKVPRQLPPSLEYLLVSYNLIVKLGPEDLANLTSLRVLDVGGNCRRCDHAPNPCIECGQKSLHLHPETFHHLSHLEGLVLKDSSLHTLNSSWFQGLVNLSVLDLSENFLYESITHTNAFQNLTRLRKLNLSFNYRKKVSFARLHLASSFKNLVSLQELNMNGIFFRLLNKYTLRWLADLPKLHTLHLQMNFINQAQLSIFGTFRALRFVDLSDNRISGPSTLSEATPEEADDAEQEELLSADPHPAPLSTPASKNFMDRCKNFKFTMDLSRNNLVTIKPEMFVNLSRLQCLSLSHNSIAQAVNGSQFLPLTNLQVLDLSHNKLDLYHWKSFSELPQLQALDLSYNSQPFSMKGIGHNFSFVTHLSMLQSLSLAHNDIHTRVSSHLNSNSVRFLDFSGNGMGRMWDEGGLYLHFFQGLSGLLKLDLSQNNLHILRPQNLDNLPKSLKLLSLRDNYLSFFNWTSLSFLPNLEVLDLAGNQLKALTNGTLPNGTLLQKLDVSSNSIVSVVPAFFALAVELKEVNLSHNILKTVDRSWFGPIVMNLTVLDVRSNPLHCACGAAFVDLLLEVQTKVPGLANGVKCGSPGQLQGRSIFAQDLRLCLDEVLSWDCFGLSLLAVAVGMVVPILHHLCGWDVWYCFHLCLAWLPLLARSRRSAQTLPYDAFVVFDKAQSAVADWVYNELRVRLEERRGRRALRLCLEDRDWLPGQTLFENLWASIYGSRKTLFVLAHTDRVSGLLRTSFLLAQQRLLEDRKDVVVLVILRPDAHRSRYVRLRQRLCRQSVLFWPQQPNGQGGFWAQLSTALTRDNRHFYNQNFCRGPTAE
In words: flow cytometry on Ba/F3_mTLR9 cells, hybridoma selection. An excerpt: In order to establish a monoclonal antibody (mAb) against mouse TLR9, BALB/c TLR9^{-/-} mice were immunized with Ba/F3 cells(Ba/F3_mTLR9) that expressed mouse TLR9. Four days after final immunization, the spleen cells were fused with the SP2/0 myeloma cells. Hybridomas producing anti-mouse TLR9 mAb were selected by flow cytometry based on the staining of the Ba/F3 cells used for immunization. Three monoclonal antibodies J15A7 (IgG1/κ), C34A1 (IgG2a/κ), and B33A4 (IgG2a/κ) were established.

The target of assay [2] is T4, mouse TLR9 having Flag-His6 added on the C-terminal side (mouse, UniProt Q9EQU3 26-1032).
T4 construct: Expressed in Ba/F3 cells and stained after membrane permeabilisation; not shown: C-terminal Flag-His6 tag
T4 sequence: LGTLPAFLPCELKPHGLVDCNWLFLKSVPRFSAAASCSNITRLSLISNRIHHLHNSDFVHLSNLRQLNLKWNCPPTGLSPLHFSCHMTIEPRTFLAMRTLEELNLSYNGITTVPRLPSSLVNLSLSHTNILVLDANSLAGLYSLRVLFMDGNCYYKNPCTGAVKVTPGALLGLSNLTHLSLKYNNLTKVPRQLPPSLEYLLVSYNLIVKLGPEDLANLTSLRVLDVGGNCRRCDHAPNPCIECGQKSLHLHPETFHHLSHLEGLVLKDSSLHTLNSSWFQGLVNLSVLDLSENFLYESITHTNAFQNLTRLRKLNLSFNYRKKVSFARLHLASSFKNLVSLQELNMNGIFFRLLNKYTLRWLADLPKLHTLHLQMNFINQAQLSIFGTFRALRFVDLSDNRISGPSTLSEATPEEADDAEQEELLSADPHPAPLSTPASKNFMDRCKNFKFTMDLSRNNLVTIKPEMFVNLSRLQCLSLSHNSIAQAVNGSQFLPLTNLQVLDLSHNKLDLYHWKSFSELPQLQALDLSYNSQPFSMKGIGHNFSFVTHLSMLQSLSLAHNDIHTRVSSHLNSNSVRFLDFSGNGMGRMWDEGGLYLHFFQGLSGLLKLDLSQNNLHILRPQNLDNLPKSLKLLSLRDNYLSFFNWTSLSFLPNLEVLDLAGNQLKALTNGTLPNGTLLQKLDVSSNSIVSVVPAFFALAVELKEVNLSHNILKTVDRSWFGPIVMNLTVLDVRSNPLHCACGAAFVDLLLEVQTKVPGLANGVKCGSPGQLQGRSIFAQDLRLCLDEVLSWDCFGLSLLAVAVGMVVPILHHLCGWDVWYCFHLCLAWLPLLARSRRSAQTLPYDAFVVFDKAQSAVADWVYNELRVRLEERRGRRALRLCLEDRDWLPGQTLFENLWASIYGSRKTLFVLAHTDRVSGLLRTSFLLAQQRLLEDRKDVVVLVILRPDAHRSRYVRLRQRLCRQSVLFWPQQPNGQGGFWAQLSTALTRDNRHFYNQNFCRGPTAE
Nature of the assay: membrane permeability staining of Ba/F3 cells, flow cytometry.

Assay [3] addresses T5, human TLR9 having Flag-His6 added on the C-terminal side (human, UniProt Q9NR96 26-1032).
T5 construct: whole, on cells; Expressed in Ba/F3 cells and stained after membrane permeabilisation; not shown: C-terminal Flag-His6 tag
T5 sequence (looked up): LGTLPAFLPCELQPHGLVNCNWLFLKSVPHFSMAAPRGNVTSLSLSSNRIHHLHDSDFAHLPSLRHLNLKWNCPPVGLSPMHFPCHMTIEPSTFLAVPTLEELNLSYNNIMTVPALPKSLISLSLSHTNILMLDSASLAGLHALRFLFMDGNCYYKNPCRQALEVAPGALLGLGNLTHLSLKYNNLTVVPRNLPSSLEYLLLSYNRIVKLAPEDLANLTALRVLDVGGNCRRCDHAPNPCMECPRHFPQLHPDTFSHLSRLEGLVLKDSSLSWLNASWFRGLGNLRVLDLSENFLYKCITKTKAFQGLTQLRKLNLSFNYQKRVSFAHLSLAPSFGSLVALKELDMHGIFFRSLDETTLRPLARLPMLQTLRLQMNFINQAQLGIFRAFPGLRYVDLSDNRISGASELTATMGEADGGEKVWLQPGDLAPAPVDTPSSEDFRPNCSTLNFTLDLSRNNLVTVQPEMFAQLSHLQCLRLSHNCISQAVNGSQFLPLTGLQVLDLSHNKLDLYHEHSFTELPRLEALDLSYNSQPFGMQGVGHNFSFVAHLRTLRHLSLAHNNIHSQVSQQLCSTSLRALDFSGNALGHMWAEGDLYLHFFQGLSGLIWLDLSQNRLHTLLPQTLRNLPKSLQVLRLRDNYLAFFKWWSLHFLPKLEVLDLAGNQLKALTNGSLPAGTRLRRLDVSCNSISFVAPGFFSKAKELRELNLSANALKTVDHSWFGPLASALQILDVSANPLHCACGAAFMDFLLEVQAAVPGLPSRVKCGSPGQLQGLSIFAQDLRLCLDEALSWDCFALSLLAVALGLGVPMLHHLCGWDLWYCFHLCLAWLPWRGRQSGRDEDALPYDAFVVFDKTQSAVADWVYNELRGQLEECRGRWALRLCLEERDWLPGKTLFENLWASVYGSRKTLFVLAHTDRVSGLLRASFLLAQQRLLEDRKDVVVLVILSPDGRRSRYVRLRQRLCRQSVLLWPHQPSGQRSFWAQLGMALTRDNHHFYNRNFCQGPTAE
The assay is described as above.

B1: A94B10 antibody (antibody, V domains shown)
VH: EVKLVESGGGLVQPGGSLRLSCTTSGFTFSDFYMEWVRQPPGKRLEWIAASRNKRNDHTTEYSASVKGRFIVSRDTSQNILYLQMNALRAEDTAIYYCARDADYYGSSTWYFDVWGAGTTVTVSS
VL: DIVMTQSHKFMSTSVGDRVSITCKASQDVRTAVAWYQQKPGQSPKLLIYWASTRHTGVPDRFTGSGSGTDYTLTISSVQAEDLALYYCQQHYNTPPTFGGGTKLEIKR
notes: Mouse monoclonal antibody from a hybridoma, isotype IgG1; Chains were determined from full-length cDNA (5'-RACE); also called anti-mouse TLR7 antibody A94B10; anti-TLR7 monoclonal antibody
With B1, the binding result (in assay [1]; with TLR7N27-312) was “no binding” throughout.

B2: J15A7 antibody (antibody, mouse IgG1, kappa, V domains shown)
VH: QVQLQQPGAELVMPGASVKMSCKASGYTFTDYWMHWVKQRPGQGLEWIGVIDTSDSYTSYNQKFNRKATLTVDESSSTAYMQLSSLTSEDSAVYYCARDGPYYAMDYWGQGTSVTVSS
VL: QIVLTQSPAIMSASPGEKVTISCSASSGVSYMYWYQQKPGSSPKPWIYRTSNLASGVPARFSGSGSGTSYSLTISSMEAEDAATYYCHQYHSDPRTFGGGTKLEIKR
notes: Mouse monoclonal antibody from a hybridoma, IgG1/kappa; also called anti-TLR9 monoclonal antibody J15A7
As to B2, the figures for the binding result (with mouse TLR9; in assay [2]; in assay [3]) were “binds”, “binds” and “no binding”, respectively.

B3: C34A1 antibody (antibody, mouse IgG2a, kappa, V domains shown)
VH: EVQLVESGGDLVKPGGSLKLSCAASGFTFSSYAMSWVRQTPDNRLEWVATSSSVGSYAYYPDNVKGRFTISRDNAKNTLYLQMSSLKSEDTAMYYCARRDYDARYWYFDVWGAGTTVTVSS
VL: DIKMTQSPSSMYASLGERVTITCKASQDIKSYLSWYQLKPWKSPKTLIYYATTLADGVPSRFSGSGSGQDYSLTISSLESDDTATYYCLQHGESPYTFGGGTKLEIKR
notes: Mouse monoclonal antibody from a hybridoma, IgG2a/kappa
Turning to B3, the binding result with mouse TLR9 was “binds”; in assay [2], “binds”; in assay [3], “no binding”.

B4: B33A4 antibody (antibody, V domains shown)
VH: EVLLQQSGPELVKPGASVKIPCKASGFTFTDYNLDWVKQSHEKSLEWIGDINPNTGGTIYNQNFKGKATLTVDRSSGTAYMELRSLTSEDTAVYFCARYFVSNYGYFDVWGAGTTVTVSS
VL: SIVMTQTPKFLLVSAGDRVTITCKASQSVSYDVAWYQQKPGQSPKLLIYYASNLYTGVPDRFTGSGYGTDFTFTISTVQAEDLAVYFCQQDSSSPYTFGGGTKLEIKR
notes: Mouse monoclonal antibody from a hybridoma, IgG2a/kappa; also called anti-TLR9N
With B4, the binding result in assay [3] is “no binding”.
